The source of these data is article doi:10.1101/2020.06.12.148478 (bioRxiv, 2020).

In data set [1] the target is TacA (Caulobacter crescentus). The data set is described as follows: SEC-MALS. On the technique in general: In gel filtration, larger molecules generally elute earlier.
For data set [2], the target named is T1, SpbR (Caulobacter crescentus, UniProt Q9A5X4 1-377).
T1 sequence (looked up): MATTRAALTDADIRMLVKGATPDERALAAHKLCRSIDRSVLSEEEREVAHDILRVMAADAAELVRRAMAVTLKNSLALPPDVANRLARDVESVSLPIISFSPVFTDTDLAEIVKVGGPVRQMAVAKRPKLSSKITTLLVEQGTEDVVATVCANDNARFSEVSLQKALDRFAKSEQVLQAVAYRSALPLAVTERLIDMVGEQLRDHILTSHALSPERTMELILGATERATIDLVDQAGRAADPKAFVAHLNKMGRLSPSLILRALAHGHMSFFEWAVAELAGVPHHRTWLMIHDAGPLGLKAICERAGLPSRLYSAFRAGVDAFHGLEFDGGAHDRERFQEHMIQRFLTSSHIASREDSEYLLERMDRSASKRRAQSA
The data set is described as follows: ITC. (In ITC the heat of successive injections is recorded.)

Data set [3] has as its target PopA (Caulobacter crescentus). Briefly: SEC-MALS.
Data set [4] deals with the molecule itself. The data set is described as follows: MST.
The target in data set [5] is T1, SpbR. The data set is described as follows: SEC-MALS.
Data set [6] deals with the molecule itself. Briefly: SEC-MALS.

In the case of TacA (natural protein), the stoichiometry N in data set [1] was 2 subunits.

B1: RcdA (natural protein, Caulobacter crescentus, UniProt A0A0H3CD07 1-169, looked up)
chain: MTEVNAFADTPWRAGVIQDFARSELFDRTFEEGMQLVEETAAYLDGAGRHDSKVLSRNAALGYATESMRLTTRLMQVASWLLVQRAVREGEMPPEAACAEAYRLAEEAPADGPAVEELPFGLMNLLQRSERLYERVRHLDRRMYVESPNEEAPRPVQNQLDRLTAAFGG
modifications: Fluorescin-5-Maleimide on cysteine in the fluorescence polarisation and MST experiments only; unlabelled elsewhere
Regarding B1, the Kd was determined as 3.3 µM in data set [2] and 2.9 µM in data set [4]. The same molecule gave a stoichiometry N (RcdA per PopA) in data set [3] of 1. This molecule registered a stoichiometry N (RcdA per TacA chain (1 RcdA : 2 TacA)) in data set [1] of 0.5. The “stoichiometry N” value is 1 RcdA per SpbR in data set [5] and 2 subunits in data set [6].

For orientation: stoichiometry N means a count of units in the complex or per binding partner. As usually defined, the Kd is the concentration at which binding is half-saturated. High values mean a looser complex, low ones a tighter complex.
